Test results reported in publication PMC11389850.

Molecular target: BbmrR (Brevibacillus borstelensis)
Test: SEC; analytical size-exclusion chromatography, Superdex 200 10/300, 50 mM phosphate buffer, 500 mM NaCl, pH 7.5, 100 uL sample injected; column calibrated with LMW/HMW gel-filtration kits

## BbmrR (natural protein)
  stoichiometry N: 2
